Assay: soluble on expression in E. coli; label from the status in PepcDB or PDB records

Row | Sequence | soluble on expression in E. coli
1 | MRVISGEYGGRRLKALDGDNTRPTTDKVKESIFNMIGPYFDGGMALDLYSGSGGLAIEAVSRGMDKSICIEKNFAALKVIKENIAITKEPEKFEVRKMDANRALEQFYEEKLQFDLVLLDPPYAKQEIVSQLEKMLERQLLTNEAVIVCETDKTVKLPETIGTLKKTRETVYGITQVTIYRQEA | soluble
2 | MQRRLERFDAKLVQSGLDALLVTGQNNIYYLTDFWGTNATVFITKNRRLFLTDSRYTLIAKQSVHGFDIIESKDPLKDIVKFVEVDKLETIGFDNQVSFAYYQALQAIFEGYTLSPQTNFMEELRMIK | soluble
3 | MNFKPIKPKKISTQIAEQIRSSILAGEFTPGEKLPPERELAEMFGVSRPSVREALNILAAAGLVESYQGGGTIVKSLMDAASGPPLSEIIKVEQERALDVIEVRKCMEAWTAYYAAQRALPDDVRKLEGIVWNMEANLNGLKPSEDLDANFHIVIARSTHNVVWLHLMQTIFEAMKEFQRSVWRAVYLTEEDHRTLFAHHKAIFEAIRDKDCERARNAMLGHLTFAEKRSSIYVNQSRQDR | not soluble
4 | MGSDKIHHHHHHMVKRMHCNINLKYGVIMKKDCYTLRISLKPGFINAEQLKAIAYVIENFGDNKAHITTRQGIEFKISPEHLEEVEKILNNVGLNLGSTGNRVRQVVSCIGLECYNAIGDSVSLARRIHEEFEGVWVPRKVKINVSGCPNSCTFHRFCDIGICYRYKITINKEICTNCGKCKDFCDLNAIDWERKIIKDNCTGEGKCTGLCNAFKAERVISIFVGGKGGRIYKEGKHLIDLKNEDDVLFVIDELISLYAKFGKGRMADFVENYGIENLRNNIKELIK | not soluble
5 | EQGREPSWGFTEKSRTRDIPETLVPLITVTPSTELYRITGWGALEGHKVFYHETYINPEVAPGFIEQLENHSFSAVWEKCYQKETVVKKLIFKPVRMPGDISKYLGGSAGMPAILIEKHRADQQGNIVQIDIEYWRFEAVDLIINL | not soluble
6 | GELFIKELLWMLRHQKDIFNNLARQFQKEVLCPNKCGVMSQTLIWCLKCEKQLHICRKSLDCGERHIEVHRSEDLVLDCLLSWHRASKGLTDYSFYRVWENSSETLIAKGKEPYLTKSMVGPEDAGNYRCVLDTINQGHATVIRYDVTVLPPKHSEENQPP | not soluble
7 | ATVKQPSIGRYTGKPNPSTGKYTVSFIEGDGIGPEISKSVKKIFSAANVPIEWESCDVSPIFVNGLTTIPDPAVQSITKNLVALKGPLATPIGKGHRSLNLTLRKTFGLFANVRPAKSIEGFKTTYENVDLVLIRENTEGEYSGIEHIVCPGVVQSIKLITRDASERVIRYAFEYARAIGRPRVIVVHKSTIQRLADGLFVNVAKELSKEYPDLTLETELIDNSVLKVVTNPSAYTDAVSVCPNLYGDILSDLNSGLSAGSLGLTPSANIGHKISIFEAVHGSAPDIAGQDKANPTALLLSSVMMLNHMGLTNHADQIQNAVLSTIASGPENRTGDLAGTATTSSFTEAVIKRL | soluble
8 | MGSDKIHHHHHHMTNKTNAASLDIVGIGNAIVDVLTTTDDSFLKKLSFDKGSMTLIDEKKAKELYEMTTNRIQKSGGSVANSLACVAQLGGKAAFIGRVRDDKLGEIFTEEISTTGTIFKTPPSSVGPSTARCIIFVTPDAQRTMCTYLGASVLLEPKDIDLSLVREAKILYLEGYLWDNPAAKNAFIKAAEIAKNAGRKVALSLSDSFCVSRHRESFIKLVEEHIDILFANEDEITNLYETSSLSNALEKLKKKCDLAAITIGEKGSILISNGKEIKIDPFILGKAIDTTGAGDLYAGAFLKGYADGLKPELSAKIGSICAGQIVTQLGSRSNTDLLNLINSHLEA | not soluble
9 | MSASLVETVDIEAPVAVTWALWSDVSRWPSFLSHVRLVEPLDERRFAWQLSLPGADKNFVAELTEVIPGDRIAWQTTEGVHHAGVVTFHRLSDTSSRVTLQIEYDPKGFVEHIGALTNLDSTLANYDLGEFQKLAETAAAGLEHHHHHH | not soluble
10 | MTVKVCVCGGGNGAHTLSGLAASRDGVEVRVLTLFADEAERWTKALGADELTVIVNEKDGTQTEVKSRPKVITKDPEIAISGADVVILTVPAFAHEGYFQAMAPYVQDSALIVGLPSQAGFEFQCRDILGDKAAAVSMMSFETLPWACRIKEFGRKVEVLGTKSVLAASLIKGTAKTVDPLSTLQMLHGAEPVFRLAKHFLEMLIMSYSFVHPAILFGRWGSWDGKPVPEAPLFYQGIDQATADMLTACSNECKDVANAIMAACPGNDLSDVKDIYQWYLEYYHEDIQDDHDLYHAITTNKSYKGLVHPVKAVDGGVAPDFGNRYLTEDIPMGMIVFKGVAIAAGVAIPSNDKLIMWAQEKIGKEYLVDGALTGKDVATTRCPQRYGFNTLDAILTGKKHHHHH | soluble
11 | GSHMASPTPAPSQSPIRRDAFSIIEAEEYNSTNSSTLQVIGTPNNGRGIGYIENGNTVTYSNIDFGSGATGFSATVATEVNTSIQIRSDSPTGTLLGTLYVSSTGSWNTYNTVSTNISKITGVHDIVLVFSGPVNVDNFIFSRSS | soluble
12 | MGSDKIHHHHHHMSSKPIAPLHGRTIIMTRAQEQQSEARSQLHALGSNVLDLPALVIGPPDDWQPLDDALADIKTFHWLVFSSANGVRAVEERLQRIGQSLANRPKGLKLAAVGRKTAQYLEHLGAAVDFVPPNFVADSLINHFPVSGFGLKMLLPRVQSGGRTILGEAFRESGAHVIEVAAYESRCPEAIPDDTATALANSNVDAIAFSSGKTAAHTASLLSHRFGSDWLQQLETVKVISIGPQTSLSCEQHFGRVDQEADPHNLEGLISACVKACRSEAETCPPGSR | not soluble
13 | MSGELKDRLVARALEEGFVSCRVCRPWDVPEMPARLGAFVEAGYHGQMGWMAERMEWRGDPAALWPEARSVIMLAESYAPDTDPMEVVGQPDRGAISVYARGKDYHDLVKKRLKRLARWLIEAGGGEVKVFVDTAPVPEKALGQAAGLGWQGKHTNLVSRDWGNWAFLGSVFTTLDLPSDPVGRDNCGSCSACLTACPTDAFPAPYRLDARRCISYLTIEHKGPVDEELRAKLGNRIYGCDDCLAACPWNKFAVAASDLRYGARPELSAPALADLARLDDAGFREMFSGSPIKRIGRDRFVRNVLYAIGNSGLPALRPVAQDLAQDSDPTVADAARWAAAKLAMSR | not soluble
14 | MSLEENDFDAIYIGNSKSMIKDYRGFVFTMRELREKFPNAVLITDLEPFFYPLAVYLGIDAFDIRSLKIYSYEGLGFTQFSPIIWDEPKEDPVEYAKKIIRLIRIAIHEGKLRYLVENFLPTSMNAGILRIADRENIEYLEKYTPVDDKTVVFISDYSMTRPEVYRWAKRVRERFEPPKDIELLLILPCSAKKPYSRSRSHTLYRSAVKEALGEKMHRVHELIVTSPYGVVPREWEWIAKYDIVVTGHWSEREVRLAGELLADVLEKYPDIPIIAHVEGGYREAVKLAMELSGRDVIFTAKGNSTTSRESLANLTKTLKEFDVRDVDKEYRRYRFYENIRKIFDFYFGLNAGYAVLPERAQVVGSKMLRLIVDNQQTGTFQEGVISVTPWGMQRIYDELHSYWVEIDFDVRGDIFAAGVGSADEKIRPNDWVGVVRDGKVVAVGRAVLSGEEMVKAKRGVAVKVKKKAKEGHHHHHH | not soluble
15 | MGSDKIHHHHHHMTLDPDAKLPETEEGTVVYNTDPLIIRSHYEIDYIHSYAQDSEFFRALGRKKLMGSKCKKCGYVYATPRSHCMMCGSETEWYELPLKGRVHTYTTCYFSGEEFLNETPFNLILVEFDGVNSLFMSRLIGAETKDIYIGMPVKAKFRRNLKMNVTDVYFVPDVEK | not soluble
16 | MMEDGAEGEIGDMLSMCNKHPFFDDDDSERFVILYKICTVFDEPVEGKQPSSAVIVYEELAKSGGYCCRPSKMEESYVKVDQVVQEMAKITSKCAIHLSSHALKNTIQIVRTAFSGEYTQNDKDGNVPEGNEVKFDGDETVMKTTVNCEKLVEDINEFMEEDRQMYGALEIQIMEESERNIDGYAYFSFLKFVPCGNIHLRIPPLEGSCTKEVINEVIETIMRNFWNYCGDS | not soluble
17 | MTEIQTIRKKVEQQITSLQNETDEIAEFNQAKVLDAFQENKVSDFHFNPSTGYGYDDEGRDTLERVYASVFKTEAALVRPQIISGTHAISTVLFGILRPGDELLYITGEPYDTLEEIVGIRSEGQGSLKDFQIGYDAVPLLPNGEIDYPAVSKKISANTKMIGIQRSRGYADRPSFTIEKIKEMVTFVKNINPNIIVFVDNCYGEFVERIEPTEVGADIIAGSLIKNPGGGLAKTGGYIAGRNTLVDLCGYRLTTPGIGREAGASLYSLLEMYQGFFLAPHVTAQAIKGARFTAAMLAEFGVEADPLWDAKRTDLIQSVSFHSKDKMIAFAQAIQAASPVNAHVLPIGAYMPGYEDDVIMAAGTFIQGASLELTADGPIREPYQLYVQGGLTYEHVKIAVTRAIENSLLEHHHHHH | soluble
18 | MGSDKIHHHHHHMMKLTALVDNTRLDSRPELAVERGLSFHVETMGSQILFDTGSSSTFCENAALMNISIQDVDLAVISHRHHDHCNGTTHFIERNSKAKIYLKDCEDKNYLFKAFGFKNDVGINKELLKNASERLIFVEHTTEILPNIFIITEISDKYEKPKGNRYLYTQSENGYKNDTFDHELLLVVKESDGLIVFTGCAHSGVLNMVETAIELFPNHRIKAVVGGFHLVGLPLLNSIGGTKQDIQAIGQALSHYPIDKLYTGHCTGMKAFGLLKEVLGDRLEHLPTGRSVLI | not soluble
19 | MSALASKLFAKCAAGGRALQSQAVRQFSAYPIDDSMFGLNDEEIALRQSIRQFADKELAPYADKIDKDNGWDQLRPFWKKLGDQGLLGITAPAEYGGSGMNYFSHVIAMEELSRAAGGIALSYGAHSNLCINQIVRNGSEEQRKKYLPKLISGEHMGALAMSEAQAGSDVVSMKLRAEKKGDKYVLNGTKFWITNGPDADVLVVYAKTDPSKHQHGITCFLVEKNTPGFSQSPKLDKLGMRGSNTCELVFDNCEIHESQIMGGKGKGVYVLMTGLDYERLVLSGGPLGLMQAACDIAFDYAHQRTAFGQKIGSFQLLQGKLADMYTTLNASRSYLYMVAKAADKGNVSNKDCAGVILYVAEKCTQVCLDAIQILGGNGYINDYPAGRLLRDAKLYEIGAGTSEVRRLIIGRALNKEYSN | not soluble
20 | MGSDKIHHHHHHLTYDEIKKNKEVCECLKKGNENLGVLGFTDHSVAHCTMVAKRAAYILKKFGYSESDIEMVKIAGFMHDIGNVVNRSRHAEYGAILANEILKETDMSLKDRITVVSAIGHHDESTGGATDPISAALIIADKTDVRRNRVRNKAKENFDIHDRVNYAVTDAALKINMDKKVIALNLQIDTKICSMYEYFEIFLGRMMMCRGAAEVLGATFKLTANGSKVL | not soluble
21 | MRRVFSSQAIQTAIEKSLPDLQKIVGNSSVRTQESVRRQFARDESHFIAPPPAVVLEPTNVEQVSEILKLCNDRAIPVVPFGTGTGLEGGSMSTLGGICISTQQIIGDPVLREQDFVCSVKPSTTRIALNDAIKNSGLFFPVDPGADASVCGMVATSASGTNAIRYGTMKENVVNLEVVLADGTIIDTKGKGRCPRKSSAGFNFTELFVGSEGTLGIITEATVKVHPRPQFLSAAVCSFPTVHEAASTVVEVLQWNIPVARIELLDTVQIQACNSYSSLNLRESPTLFIEFHGSNEKEVADQTSAVEDICKSHEALDFDSGASPDKRATLWKARHNAYYAALAMRTGARGFTTDVCVPISKLADVISETRSDLDEHEILGTVVGHVGDGNFHVILPTIEEDKTEHRKIQSFSDRLVRRALAADGTCTGEHGIGLGKRKYLREELGENTVRLMHTIKHALDPNNIMNPGKVLPEL | soluble
22 | MLKSLQIPVEKLTSKGIKSAEDRITWVKREIGRLPEKEEVFNAILEALKEELGIEPYWGELTKEELELFEEKKDYFKSDEWIYHVKKAITGDEILYGIYRCPGGTFRVSAKVDPQTKVLQQVIINGDFFINPKRLIYDLEAYLKHTPVQEVEKRIREFFKEREFESVNLTVDDFVEA | soluble
23 | RSKTVILAKNLPAGTLAAEIQETFSRFGSLGRVLLPEGGITAIVEFLEPLEARKAFRHLAYSKFHHVPLYLEWAPIGVFGAAPQKKDSQHEQPAEKAE | soluble

— the DeepSol protein solubility set
